According to article PMC8516343:

Experiments:
[1] = biological target: βTrCP1 (UniProt Q9Y297); test: co-immunoprecipitation; conditions: reference: ATF4 wild type; sites S219
[2] = biological target: βTrCP1 (UniProt Q9Y297); test: anti-Myc co-IP, anti-Flag blot; conditions: reference: Myc-ATF4-WT with Flag-CK1δ; sites S219

Substance	binding against the reference [1]	binding against the reference [2]
ATF4 (from UniProt P18848) ATF4-S219A	lost	–
ATF4 (from UniProt P18848) Myc-ATF4-S219A with Flag-CK1δ	–	weaker
